What all share (experiment): ELISA; ECM protein coated on the plate (100 nM in PBS, 1 h, 37 °C), blocked with 1% BSA in PBS-T; IL-1Ra or PDGF-BB variants at 0 to 100 nM in PBS-T with 0.1% BSA, 1 h, room temperature; bound protein detected with biotinylated antibodies (DuoSet); specific binding fitted with a one site-specific binding model; means of 3 independent experiments
Experiment [1] addresses human plasma fibronectin (human).
In a further experiment the target is human tenascin C (human) (UniProt P24821).
human tenascin C (human), sequence (P24821 23-2201): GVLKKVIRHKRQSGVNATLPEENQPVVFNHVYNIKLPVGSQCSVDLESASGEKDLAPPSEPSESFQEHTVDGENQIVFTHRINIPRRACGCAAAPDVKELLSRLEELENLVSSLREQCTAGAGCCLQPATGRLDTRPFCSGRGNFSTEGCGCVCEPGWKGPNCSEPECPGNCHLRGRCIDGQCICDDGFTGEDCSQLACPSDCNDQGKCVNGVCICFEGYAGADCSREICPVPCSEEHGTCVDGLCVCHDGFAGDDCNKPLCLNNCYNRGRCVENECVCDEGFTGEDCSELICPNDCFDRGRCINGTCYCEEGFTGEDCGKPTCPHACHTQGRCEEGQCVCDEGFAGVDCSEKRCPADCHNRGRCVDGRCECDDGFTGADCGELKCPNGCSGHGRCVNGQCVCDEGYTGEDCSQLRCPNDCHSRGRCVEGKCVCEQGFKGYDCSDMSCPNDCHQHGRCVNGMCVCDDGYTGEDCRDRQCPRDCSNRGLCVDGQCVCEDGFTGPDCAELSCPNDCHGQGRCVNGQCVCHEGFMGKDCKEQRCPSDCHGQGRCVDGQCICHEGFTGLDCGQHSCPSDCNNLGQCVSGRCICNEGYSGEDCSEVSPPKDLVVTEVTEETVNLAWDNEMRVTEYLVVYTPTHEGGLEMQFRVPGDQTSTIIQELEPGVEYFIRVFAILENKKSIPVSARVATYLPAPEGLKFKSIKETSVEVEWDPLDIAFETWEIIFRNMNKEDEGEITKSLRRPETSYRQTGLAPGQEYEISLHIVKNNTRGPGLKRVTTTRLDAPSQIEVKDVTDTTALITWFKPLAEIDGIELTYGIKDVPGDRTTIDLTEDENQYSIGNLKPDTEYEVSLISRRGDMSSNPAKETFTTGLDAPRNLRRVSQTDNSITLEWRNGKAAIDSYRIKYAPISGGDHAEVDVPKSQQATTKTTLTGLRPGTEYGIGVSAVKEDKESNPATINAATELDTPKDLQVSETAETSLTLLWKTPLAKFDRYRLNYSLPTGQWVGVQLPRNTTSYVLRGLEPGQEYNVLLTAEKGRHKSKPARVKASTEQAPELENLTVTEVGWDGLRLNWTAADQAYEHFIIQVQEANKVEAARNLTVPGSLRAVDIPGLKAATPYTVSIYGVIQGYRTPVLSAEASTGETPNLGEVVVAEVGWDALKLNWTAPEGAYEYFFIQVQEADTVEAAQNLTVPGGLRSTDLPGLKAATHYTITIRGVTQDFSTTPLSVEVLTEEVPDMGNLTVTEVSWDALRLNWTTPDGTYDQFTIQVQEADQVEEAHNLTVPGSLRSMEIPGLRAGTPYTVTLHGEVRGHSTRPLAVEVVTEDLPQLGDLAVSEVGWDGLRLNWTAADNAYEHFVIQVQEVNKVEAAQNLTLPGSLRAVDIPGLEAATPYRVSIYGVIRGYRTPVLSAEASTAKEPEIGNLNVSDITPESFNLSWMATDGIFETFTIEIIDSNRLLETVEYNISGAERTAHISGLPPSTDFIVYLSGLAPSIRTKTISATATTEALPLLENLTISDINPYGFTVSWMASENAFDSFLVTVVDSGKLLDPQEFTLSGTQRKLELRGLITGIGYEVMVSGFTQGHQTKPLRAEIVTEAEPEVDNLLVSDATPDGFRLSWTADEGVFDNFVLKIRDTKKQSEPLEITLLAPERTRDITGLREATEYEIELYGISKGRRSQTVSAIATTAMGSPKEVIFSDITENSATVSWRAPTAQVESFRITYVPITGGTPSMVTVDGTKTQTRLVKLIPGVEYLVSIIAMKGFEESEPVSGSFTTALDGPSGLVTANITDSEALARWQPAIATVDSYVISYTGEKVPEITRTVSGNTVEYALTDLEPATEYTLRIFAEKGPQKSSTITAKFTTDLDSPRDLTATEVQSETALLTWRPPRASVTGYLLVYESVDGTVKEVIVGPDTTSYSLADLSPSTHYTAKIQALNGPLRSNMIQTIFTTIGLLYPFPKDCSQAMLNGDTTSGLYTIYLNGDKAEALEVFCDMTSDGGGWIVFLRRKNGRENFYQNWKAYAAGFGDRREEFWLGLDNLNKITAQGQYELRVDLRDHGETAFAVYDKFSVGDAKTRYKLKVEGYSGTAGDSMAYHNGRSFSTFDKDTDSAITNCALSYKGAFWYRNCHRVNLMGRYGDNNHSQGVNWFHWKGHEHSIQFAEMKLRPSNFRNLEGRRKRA
The target of experiment [2] is human vitronectin (human) (UniProt P04004).
human vitronectin (human), sequence (P04004 20-478): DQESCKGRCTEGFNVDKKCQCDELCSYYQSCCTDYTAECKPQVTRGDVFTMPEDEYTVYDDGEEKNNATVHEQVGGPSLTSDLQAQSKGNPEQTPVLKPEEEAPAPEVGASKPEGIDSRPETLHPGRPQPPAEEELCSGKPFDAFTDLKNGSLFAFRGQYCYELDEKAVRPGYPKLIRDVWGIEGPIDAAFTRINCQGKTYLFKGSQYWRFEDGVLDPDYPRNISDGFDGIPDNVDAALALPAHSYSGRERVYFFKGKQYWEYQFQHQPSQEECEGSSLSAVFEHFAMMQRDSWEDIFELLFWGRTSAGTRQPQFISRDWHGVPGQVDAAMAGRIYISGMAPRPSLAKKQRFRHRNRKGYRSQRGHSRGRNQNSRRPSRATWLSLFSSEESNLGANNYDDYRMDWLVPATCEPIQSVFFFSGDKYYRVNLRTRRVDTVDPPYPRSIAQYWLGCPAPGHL

In general, Kd refers to the concentration at which binding is half-saturated. High values mean a looser complex, low ones a tighter complex.

human plasma fibronectin (human), sequence (P02751 other isoform, or with tags, fused parts or gaps): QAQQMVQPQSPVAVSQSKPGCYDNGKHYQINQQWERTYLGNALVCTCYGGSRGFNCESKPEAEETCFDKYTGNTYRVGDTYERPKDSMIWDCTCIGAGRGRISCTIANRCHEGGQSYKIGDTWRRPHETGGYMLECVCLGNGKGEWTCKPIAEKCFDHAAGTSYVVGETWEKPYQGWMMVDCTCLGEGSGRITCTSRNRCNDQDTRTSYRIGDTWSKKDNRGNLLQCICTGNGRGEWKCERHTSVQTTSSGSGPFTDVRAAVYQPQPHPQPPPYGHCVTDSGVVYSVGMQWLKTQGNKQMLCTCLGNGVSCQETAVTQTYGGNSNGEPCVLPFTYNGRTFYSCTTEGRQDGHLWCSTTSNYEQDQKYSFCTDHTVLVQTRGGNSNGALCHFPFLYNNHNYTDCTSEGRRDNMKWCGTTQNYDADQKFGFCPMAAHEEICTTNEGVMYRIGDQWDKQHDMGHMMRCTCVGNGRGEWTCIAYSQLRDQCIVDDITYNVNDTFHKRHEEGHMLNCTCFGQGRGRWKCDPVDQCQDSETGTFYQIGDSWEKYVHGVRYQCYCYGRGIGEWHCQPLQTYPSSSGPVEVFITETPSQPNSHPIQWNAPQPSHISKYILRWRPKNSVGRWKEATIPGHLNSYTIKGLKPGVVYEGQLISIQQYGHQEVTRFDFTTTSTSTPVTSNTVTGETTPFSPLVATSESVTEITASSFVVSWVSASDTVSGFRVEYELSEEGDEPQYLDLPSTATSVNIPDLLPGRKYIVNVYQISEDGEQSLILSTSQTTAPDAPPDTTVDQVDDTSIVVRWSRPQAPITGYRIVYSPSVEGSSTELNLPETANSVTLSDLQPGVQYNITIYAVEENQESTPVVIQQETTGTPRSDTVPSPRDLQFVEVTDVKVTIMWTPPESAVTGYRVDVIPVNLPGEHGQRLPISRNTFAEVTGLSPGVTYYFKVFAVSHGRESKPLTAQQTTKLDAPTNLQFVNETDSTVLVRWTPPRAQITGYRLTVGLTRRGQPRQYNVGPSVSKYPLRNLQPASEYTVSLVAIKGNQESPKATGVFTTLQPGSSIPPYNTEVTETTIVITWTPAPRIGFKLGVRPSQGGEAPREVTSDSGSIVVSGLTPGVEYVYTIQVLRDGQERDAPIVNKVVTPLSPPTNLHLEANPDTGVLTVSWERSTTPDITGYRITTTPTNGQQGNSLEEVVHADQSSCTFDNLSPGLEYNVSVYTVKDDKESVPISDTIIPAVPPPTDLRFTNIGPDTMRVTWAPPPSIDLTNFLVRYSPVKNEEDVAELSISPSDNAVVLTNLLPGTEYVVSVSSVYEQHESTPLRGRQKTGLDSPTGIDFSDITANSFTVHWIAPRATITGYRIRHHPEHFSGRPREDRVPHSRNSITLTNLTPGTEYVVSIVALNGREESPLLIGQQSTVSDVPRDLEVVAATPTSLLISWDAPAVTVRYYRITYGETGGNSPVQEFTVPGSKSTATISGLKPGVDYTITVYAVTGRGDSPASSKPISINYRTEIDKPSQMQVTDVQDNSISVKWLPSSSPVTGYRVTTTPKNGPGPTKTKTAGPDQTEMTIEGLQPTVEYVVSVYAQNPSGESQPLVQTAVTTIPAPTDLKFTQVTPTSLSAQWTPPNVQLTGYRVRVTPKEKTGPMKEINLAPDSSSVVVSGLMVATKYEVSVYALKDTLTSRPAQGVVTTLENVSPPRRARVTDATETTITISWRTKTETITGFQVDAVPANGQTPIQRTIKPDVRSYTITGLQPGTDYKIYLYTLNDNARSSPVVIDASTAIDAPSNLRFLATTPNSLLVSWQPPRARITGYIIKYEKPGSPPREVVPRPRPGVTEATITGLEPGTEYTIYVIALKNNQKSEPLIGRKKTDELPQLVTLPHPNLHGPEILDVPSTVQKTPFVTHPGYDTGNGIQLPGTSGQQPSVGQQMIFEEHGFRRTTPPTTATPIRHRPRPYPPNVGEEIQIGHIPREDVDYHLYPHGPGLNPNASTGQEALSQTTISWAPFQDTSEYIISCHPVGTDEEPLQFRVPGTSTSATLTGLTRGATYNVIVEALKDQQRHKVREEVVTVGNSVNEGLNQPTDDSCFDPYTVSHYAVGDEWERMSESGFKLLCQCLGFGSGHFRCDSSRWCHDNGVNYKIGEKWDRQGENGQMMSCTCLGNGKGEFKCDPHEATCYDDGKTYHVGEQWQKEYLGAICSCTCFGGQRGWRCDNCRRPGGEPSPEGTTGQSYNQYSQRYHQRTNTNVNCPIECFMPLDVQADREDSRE

“IL-1Ra/PlGF123-141 (other; other documents disagree on this pair)” gave a Kd in experiment [1] of 21.9 nM.

In the case of IL-1Ra/PlGF123-141, the equilibrium dissociation constant (Kd) in the experiment with human tenascin C (human) was 20.3 nM; in experiment [2], 0.7 nM. The corresponding values for PDGF-BB/PlGF123-141 are 25 nM and 1.4 nM. With “PDGF-BB/PlGF123-141 (other; other documents disagree on this pair)”, the Kd in experiment [1] is 17.7 nM.

Values taken from paper PMC7998035.
